Laboratory results taken from patent US20240270801A1, “EPITOPE PEPTIDE OF HUMAN ALPHA-SYNUCLEIN AND PHARMACEUTICAL COMPOSITION INCLUDING SAID PEPTIDE” (Sumitomo Pharma Co., Ltd., priority 2021, published 2024).
No end group written: not given here. KLH = keyhole limpet hemocyanin

Tests used:
aggregated human αSyn [1] = experiment: Antibody-inducing ability in mice: ELISA antibody titer of immune serum with respect to aggregated human αSyn; format: in vivo, mouse
Procedure, shortened: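 Female balb/c mice (6 weeks) immunized i.m. twice, 2 weeks apart, with conjugate (250 μg/mouse) or KLH-DMPVDPDN (25 μg/mouse) plus Alum (50 μg/mouse); serum taken 2 weeks after second dose. ELISA on plates coated with aggregated human αSyn (15 ng/well), anti-mouse IgG-HRP, TMB, A450; titers expressed relative to reference conjugate set to 1 (log).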

aggregated human αSyn [2] = experiment: Antibody-inducing ability in cynomolgus monkeys: ELISA antibody titer with respect to aggregated human αSyn; format: in vivo; details: i.m. three times at 2-week interval, Alum; AJ conjugates 2,000 μg/monkey, KLH-DMPVDPDN 75 μg/monkey; FIG. 4B
Experimental: The antibody-inducing ability of the AJ-human αSyn peptide conjugate with respect to human αSyn and aggregated human αSyn in cynomolgus monkeys was evaluated. The AJ-human αSyn peptide conjugates (AJ-p54, AJ-p150, AJ-p283, AJ-p142, and AJ-p273) (2,000 μg/monkey) and KLH-DMPVDPDN (75 μg/monkey) were intramuscularly administered to cynomolgus monkeys (males, 3 to 7 years old, SNBL, Ltd.) three times at a 2-week interval using Alum (InvivoGen, 200 μg/monkey) as an adjuvant. Blood was collected before administration and 4, 6, 8, and 10 weeks after the first administration to recover the serum. ELISA was performed by the following method.
96-well plates were coated with human αSyn (Sigma-Aldrich) or aggregated human αSyn (StressMarq Biosciences Inc.) at 0.2 μg/well or 15 ng/well. After washing with PBST once, blocking was performed with 3% skim milk (FUJIFILM Wako Pure Chemical Corporation). After washing with PBST three times, diluted serum was added to cause a reaction at room temperature for 1 hour. Furthermore, after washing with PBST three times, Goat anti-Monkey IgG-HRP (Bio-Rad Laboratories, Inc.) was added to cause a reaction at room temperature for 1 hour. […] An equal volume of a TMB Stop Solution (KPL) was added to stop the reaction, and the absorbance at 450 nm was measured.

KLH-C-DMPVDPDN ({KLH}-CDMPVDPDN) [KLH-DMPVDPDN, comparison vaccine, reference compound]
Antibody-inducing ability regarding the aggregated human αSyn (in words) (aggregated human αSyn [1]; Example 2, balb/c mice): very weak
Antibody titer with respect to aggregated human αSyn (N = 4 − 6, mean ± standard deviation) (aggregated human αSyn [1]; Example 2, balb/c mice, i.m. twice at 2-week interval, Alum, AJ conjugates 250 μg/mouse, KLH-DMPVDPDN 25 μg/mouse, serum 2 weeks after second administration): 208 ± 205
Induction of the antibody to aggregated human αSyn (in words) (aggregated human αSyn [1]; Example 4, balb/c mice): did not induce the antibody to aggregated human αSyn
Antibody titer with respect to aggregated human αSyn (mean ± standard deviation) (aggregated human αSyn [1]; Example 4, balb/c mice, i.m. twice at 2-week interval, Alum, AJ conjugates 250 μg/mouse, KLH-DMPVDPDN 25 μg/mouse): 36 ± 20
Induction of the antibody to aggregated human αSyn in cynomolgus monkeys (aggregated human αSyn [2]): not induced
